This data set relates to Saccharomyces cerevisiae. The data set can be described thus: transcriptional activation domain activity (GFP:mCherry ratio, weighted mean of sorted bins, harmonized to initial dataset scale) (arbitrary fluorescence ratio units); higher = stronger transcriptional activation. Conditions: beta-estradiol 1 µM; induction time 4 h. As for the experimental part: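 53-aa protein tiles (fungal proteins plus yeast TF control tiles) fused C-terminally to a DBD-estrogen-binding domain-mCherry synthetic TF, integrated in S. cerevisiae (URA3 locus) with a GFP reporter. Cells were induced with 1 uM beta-estradiol for 4 h at 30 C, FACS-sorted into 8 bins by GFP:mCherry ratio and barcodes sequenced. Activity is the read-weighted mean bin fluorescence (GFP:mCherry), averaged over barcodes (median 12); tiles under 50 reads were discarded. New active-learning values were harmonized by linear fit onto the scale of the initial (Hummel et al.) dataset. The assay saturates at low and high signal.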

With “ALVRCCLSKVVYVALEFISICTMPESAKGVINLIDNLSPYARKDLVHLRGWVC”, the “transcriptional activation domain activity” value came out at 51800.
On to “ALVTVLLLLMGYLPHLNTVTLTVRTFRNRLSHHDFSQHELAIFLDLLPRRCPN”, for which the “transcriptional activation domain activity” value stood at 98800.
Consider “ALYFMVIFTSHIIYTFTLILGRPIVQVIPALYGLLSFLADSDLLFILPLCRMG”, for which the “transcriptional activation domain activity” value was determined as 55000.
Turning to “ALYGLQAVVFVVIPLLQIIQIALILCQFFVANYFTIFSFVNVLFIIVAVFAFL”, the “transcriptional activation domain activity” value was determined as 41400.
For the sequence “ALYLWTRHVGFANFVKLYFVPFMCVNHWIVMLTYLHHCDPTIPYFRRTQWSFL”, the “transcriptional activation domain activity” value turned out to be 30800.
With “ALYSLFIECTLAPMLLKAIKDRVGEITLDFCWRAYKVYLTSICYLWKNVSLII”, the “transcriptional activation domain activity” value was determined as 40600.
Then “ALYSLKGRELGWLCLTICTFDGKSWMEFGAFSRRGLFTYNYGLLQPNTKRIAV”, with 35700.
Consider “AMAEKAAEEKPAAKKRGRPPKGPTMVEVVVEAPPAKKRGRPAKEDGAAAAATA”, for which the “transcriptional activation domain activity” value was 20000.
Then “AMDGVAQLHALLGGCHTRLAGLVFSTFEAAVLLVYLCVDPMFPRDCPHQHVPP”, with 57400.
“AMERLRAAEKTAKEKRLCLYANAPAANSSSKGTTAATSRGGAFEATVVRVWSG”: the “transcriptional activation domain activity” value came out at 61100.
As for “AMFAVSILIMIQVNTSAVFFAVDTMLLYLCMELGFTFIYTILVTSRLLVMRCQ”, the “transcriptional activation domain activity” value came out at 56600.
“AMKDIEIVKDEETGAPIVRLRGEAAAAAKKAGVQDITLSISHSDNQAIAVAVA”: the “transcriptional activation domain activity” value was 58900.
As for “AMLMSLFVSVFCVYGVFIHVAASALQYQIVFFSPCIYMMLICGLSFLCCESPR”, the “transcriptional activation domain activity” value was 75700.
As to “AMPTFDLVMWYREFQRILLEMRAYVIYKATVLPRWSNPSYDRPFPVLPVRGVI”, the “transcriptional activation domain activity” value came out at 48600.
In the case of “AMRSWSGLMVLSMYDFRPIRSLIASILFPNAAIRETVLDLLFSLLRIKPPAWA”, the “transcriptional activation domain activity” value was determined as 38100.
With “ANDDDGEEQEEQEEKPKKKRKRTASTPAETAGAGPSKPKPRPRPKKTSAVVPP” the figure was 28200; with “ANEEAEPEHPEPAAEANDSTGREGRGRGKRGRDRGRGRGRGRGGRSGRGGASG”, 27600; with “ANEYNVVCSILVFWSDTVPLWGFFLIFWFFFLGFQLLGVESFGEAEFWLALLK”, 62200.
For the sequence “ANGDDSAAPKPEGQEDKPVESNGASASAAAPSEPQQQEGQPKAEPAEPAPATV”, the “transcriptional activation domain activity” value worked out at 26400.
As to “ANGSSATTPEPDGKTAAGTAAVPKRKQTEKKANGPTKKQKTGSPKKGGRKGAS”, the “transcriptional activation domain activity” value was 27700.
As for “ANHQIYLDWWYTWCLAYFMDTHRDVCIVLKKSLKWVPIFGWAMHQFFNFIFLA”, the “transcriptional activation domain activity” value turned out to be 41800.
Turning to “ANHQVYADWWYAWCLTYYTGTYKDVFIVLKKSLKWVPVLGWGMQSFRFIFLAR”, the “transcriptional activation domain activity” value was found to be 79000.
Consider “ANHQVYVDWWYTWCLTYFMETHRDVCIVLKKSLKWIPVAGWGMQFFKFIFLAR”, for which the “transcriptional activation domain activity” value stood at 39400.
As to “ANLAFPDDNSTNIQLQPFSESQSQNKFDYDMFFRDSSKEGNNLFGEFLEDDDD”, the “transcriptional activation domain activity” value was 92800.
On to “ANLYVVLTLYSYTWIQVLIVSLSILLYFVFIAIYSQFNTFIFAGHIRLFGNGL”, for which the “transcriptional activation domain activity” value was 57500.
As to “ANPEPTDDDFHIFGGRHVFFTTDDPWLIFLGFILQHLDRLLNRMLFWWCVEWV”, the “transcriptional activation domain activity” value stood at 56900.
Regarding “ANPLSDSASFLSEENEDDAFGALNYNSLDATTMSAFDNNVDPFNILKSSPAQD”, the “transcriptional activation domain activity” value came out at 66600.
As for “ANQCGEVDMLSRILLIVVTYLVILRRYRDALDIIERQALPMTLALGRPLWIGR”, the “transcriptional activation domain activity” value is 62400.
With “ANRCSFFALEFSVGISWSTVGADFYVYYPTNTSKRLTFFMTWAGLWISLIFVN”, the “transcriptional activation domain activity” value was found to be 47200.
Turning to “ANRIAIRLFHFLLECPDEMTRLVAIKKYIKNTYMIPTYLVTVNCILRLAGYWK”, the “transcriptional activation domain activity” value is 55900.
Consider “ANRRMSLVCFLFIVVRYVSIAALVLNGVGFYGTMFDMDSCTHFRLAPPVTKMV”, for which the “transcriptional activation domain activity” value amounted to 44900.
Take “ANVSATAAPIVAVKRGRGRPRKDPSETQAAKKAAAAAVAPDGAKRGRGRPRLV”: the “transcriptional activation domain activity” value was found to be 45200.
In the case of “APAAADEEQEGESKNKKKKKKKGAKKAEADEEAVEAAAPAKGKKKGGAPIAAL”, the “transcriptional activation domain activity” value amounted to 54700.
On to “APAAEPVAAATIEEAPKETAEASTATEETAEEKKEEKEKKEKEKKAKLGRRLS”, for which the “transcriptional activation domain activity” value was 30700.
For the sequence “APAPIAAEPAPAPAVETPAPAPAPATEEKKEEAAAPAVEATPAPAAAPAAATT”, the “transcriptional activation domain activity” value is 30500.
“APAQPAATGGGLFGSGATGTTGGFGSNTAGGFGTGGGFGAKPAFGATPSTTGG”: the “transcriptional activation domain activity” value came out at 15600.
With “APATTAAATTSATPAVTSTLLAKPATTTTSTATPAPAAAGSLFGGAKAAGTTA”, the “transcriptional activation domain activity” value amounted to 37000.
With “APDAKTVLPIPELDDAVVESFFSSSTDSTPMFEYENLEDNSKEWTSLFDNDIP”, the “transcriptional activation domain activity” value is 137000.
In the case of “APDQPLTTQGKPRTRVYVACIQCRSRKIRCDGAKPVCHNCSHRASSAVGGVLE”, the “transcriptional activation domain activity” value is 18000.
Turning to “APFFLPPFHFFFPFFPFPFFLGSFPFLFSFPFPFSFPFFLFHFPSFFPFLPSF”, the “transcriptional activation domain activity” value turned out to be 65400.
With “APFSKGPRMWNEVYITSLAHGCLVNRLFCSLAWCELYLIFGNIFRRLDLKLFV” the figure was 58100.
For the sequence “APIDCPHRRLEVIMGLRPTRHIVLSILGLVITGFVSMDRADCIEFLLDLEPGD”, the “transcriptional activation domain activity” value turned out to be 39800.
Regarding “APIILGFSCGVCIHHLLACCIFVMIFIIRIFDPVYIPSMVLLFLCSCLSDRHG”, the “transcriptional activation domain activity” value turned out to be 69700.
Consider “APKAAAPPPAPVPAPAPVAAPAPAASVELGPDGQPKRRRGRPKGSKNKPKIPP”, for which the “transcriptional activation domain activity” value amounted to 35700.
Regarding “APKDESEAPKPAEEDSPSKRKKAEEVKIEKKEETPARPEPQHTQPKQPAAKAK”, the “transcriptional activation domain activity” value is 10100.
Consider “APKEETTKPTIEVKIDVGSRCEVESTEPGLSKRGTVRFVGQTSFGNGEGVWVG”, for which the “transcriptional activation domain activity” value was 42200.
For “APMGRRTFAVDVDESGNSLAKKVKAARVKGYNYIIVVGERDLERGTAAVECVV”, the “transcriptional activation domain activity” value amounted to 36000.
Turning to “APPAAAAAAAAAPAKKAKKAKKAKKAGLLQKAKKAKKAKKAKKAAAAAAAPAA”, the “transcriptional activation domain activity” value came to 8130.
For the sequence “APPEGGDKSESKEPPKKEESAPTEAKPAEPKEENKPEAKQASNKETKPESSKP”, the “transcriptional activation domain activity” value was 23300.
Regarding “APPPAAAPSQPASQPAPAEKHEEPAPQPSPEPQPEPQAQIEESKQEPAPEPQA”, the “transcriptional activation domain activity” value amounted to 20300.
For “APPPPPPPPPPAPPARSGAPPPPPPPPPPPMGGAPPPPPPPMGGPPPPPPPPP”, the “transcriptional activation domain activity” value came out at 36400.
For “APPPPPPPPPPPPPPPSSSSAPSPSSTSAPPPPPPPPPPPPPPPGGGGPPPPP”, the “transcriptional activation domain activity” value worked out at 32900.
Consider “APPPPQPAPPVSVAPSKKTSKSKVDAPASNNEPEPVSAPKKGRKGKSKAIAQT”, for which the “transcriptional activation domain activity” value turned out to be 12200.
Turning to “APPPREGGARGGRGGRGRGEFRGGEGRGRGEGRESRGGEGRGRGGEGRGEFRG”, the “transcriptional activation domain activity” value came out at 25900.
Consider “APPSSKPSPPPTSAASPAAPRAASPRPRAASSAGCRPRRGATRCCSRARASRS”, for which the “transcriptional activation domain activity” value was found to be 39400.
Consider “APQGEEKAPAPRRSKRAKTAAPSDQETEETATKVVAGKAGAGKGKAVAAKAAA”, for which the “transcriptional activation domain activity” value is 51800.
Consider “APQPVEATAIDDGFQEAKRGRGRKKAKEEVVASAPAAPADAPQVAKAKVVASA”, for which the “transcriptional activation domain activity” value worked out at 23300.
In the case of “APRARPAPAQRVGPRARAAEQLHRADGQHRERARRQHGRRHPPAAGAAPAVRL”, the “transcriptional activation domain activity” value amounted to 52800.
“APSAARRSHTKSSPSSGTSPSGPPSARTSSRCTPPPRSSSPSGRRRSSCCKRS”: the “transcriptional activation domain activity” value is 45900.
Regarding “APSDTNGNGKRKQTKSRNGCTTCKAKRLKCDETKPHCKQCARRSVQCGGYRKE”, the “transcriptional activation domain activity” value turned out to be 39400.
Regarding “APSIRYRLPFDSLLFVFCGTLLCTLIFLREALIPHFPCWVLLWGAYILLPLCF”, the “transcriptional activation domain activity” value came to 15900.
On to “APSPPPAPEPVPEMKAIEAAPEPEPEPEPEDKWDVPVVAKKGKKAKKGAASQA”, for which the “transcriptional activation domain activity” value worked out at 25000.
On to “APSPTPDDDADMKKKDGDGKKDGEDGKKKMKMVTALKNCSFTVPAGTTAALVG”, for which the “transcriptional activation domain activity” value is 39400.
For the sequence “APSRRTGRTSTAGSASESRPTSSCTSPRRPPTPPARPPASPRTRRTSPRRPSA”, the “transcriptional activation domain activity” value amounted to 31000.
“APSSSAAADGLTSPKPTGTRAALRSILREEGAAGLLRGLSPRVAKVAPACGMM”: the “transcriptional activation domain activity” value worked out at 42700.
As to “APTAARVVPSACPSSVTSRATATATMTSPGGGSRSSSRTAAAAAPTGAAVARC”, the “transcriptional activation domain activity” value was determined as 48400.
As for “APTDETGDAETKPRGRGRPKGSGTAKKAESQPESAEPTTARRGRKRASAAAES”, the “transcriptional activation domain activity” value was 43400.
Then “APTLNYELARKFIENSEDALHNSETMDLLGTLSHGNDFALEYNFDFTLLNEID”, with 121000.
On to “APTTSKKRGRKADTNSDDAGSPSEPRRLRRSHEACARCRSKKIKASPVGRHRP”, for which the “transcriptional activation domain activity” value was found to be 30900.
As for “APVAEPVPVASTSSEVKKDEEEADEDEEDDNVASIEAKIAAARSRLSATHCLF”, the “transcriptional activation domain activity” value worked out at 10900.
Turning to “AQEAIAEQGEERGDGAGQEKAPVGKRAAEDPAAAPRGSAKRKADKGERSGAEQ”, the “transcriptional activation domain activity” value was 7850.

The values above are taken from the supplement of paper PMC12636428.
